Results: US20090068224A1, “METHOD TO IDENTIFY POLYPEPTIDE TOLL-LIKE RECEPTOR (TLR) LIGANDS” (VAXINNATE CORPORATION, priority 2005, published 2009)

target: human TLR2 (293.hTLR2 cells) (Homo sapiens, UniProt O60603); test: Biopanning of pentameric random peptide phage display library, sequencing of enriched clones; format: binding; conditions: percentage of all clones sequenced (n = 109) having given peptide sequence; after 4 rounds of biopanning, TLRlo parental HEK293, TLRhi 293.hTLR2; peptides with identity to known microbial proteins
Sequence (O60603 21-784): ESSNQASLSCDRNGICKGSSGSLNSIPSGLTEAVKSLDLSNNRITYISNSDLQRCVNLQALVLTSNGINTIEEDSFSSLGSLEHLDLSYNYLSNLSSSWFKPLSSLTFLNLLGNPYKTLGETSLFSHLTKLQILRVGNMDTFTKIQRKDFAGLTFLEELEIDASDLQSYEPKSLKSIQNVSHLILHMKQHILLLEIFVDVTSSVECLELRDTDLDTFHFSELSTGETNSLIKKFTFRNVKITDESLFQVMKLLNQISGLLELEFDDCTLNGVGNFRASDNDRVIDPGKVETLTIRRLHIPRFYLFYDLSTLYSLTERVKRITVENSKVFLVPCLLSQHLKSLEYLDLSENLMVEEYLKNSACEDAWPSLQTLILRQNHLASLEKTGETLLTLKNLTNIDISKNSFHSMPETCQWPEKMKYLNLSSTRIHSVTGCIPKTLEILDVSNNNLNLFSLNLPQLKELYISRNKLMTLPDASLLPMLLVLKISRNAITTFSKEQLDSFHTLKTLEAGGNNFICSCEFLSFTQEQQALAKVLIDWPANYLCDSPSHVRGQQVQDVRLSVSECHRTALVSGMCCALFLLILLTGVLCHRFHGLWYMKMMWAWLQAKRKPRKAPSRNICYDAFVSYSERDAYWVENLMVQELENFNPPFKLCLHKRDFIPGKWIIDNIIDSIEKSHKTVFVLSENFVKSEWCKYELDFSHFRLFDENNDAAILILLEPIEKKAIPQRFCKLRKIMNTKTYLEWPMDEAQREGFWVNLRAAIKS
Procedure: (§1) Screening of phage display libraries by biopanning: Phage display libraries are screened for peptide TLR ligands according to the following procedure. The phage display library is incubated on an in vitro cultured monolayer of cells that express minimal amounts of the TLR of interest (TLR^lo) in order to reduce non-specific binding, and then transferred to an in vitro suspension culture of cells expressing the relevant TLR (TLR^hi) to capture phage with binding specificity for the target TLR. After several washes with PBS to remove phage remaining unbound to the TLR^hi cells, TLR^hi cell-bound phages are harvested by centrifugation. The TLR^hi cells with bound phage are incubated with E. coli (strain BLT5615) in order to amplify the phage. This process is repeated three or more times to yield a phage population enriched for high affinity binding to the target TLR.
In each round of biopanning, the harvested phage that are bound to TLR^hi cells can be titred prior to amplification, amplified, and then titred again prior to initiation of the next cycle of biopanning. In this way, it is possible to determine the percent (%) of input phage in each cycle that are ultimately harvested from the TLR^hi cells. This calculation provides a round-by-round measure of enrichment within the phage display library for phage that display TLR-binding peptides.
Construction of random peptide libraries (RPL): A pentameric random peptide phage display library of T7SELECT phage was constructed essentially as described in Example 2. A pair of phosphorylated oligonucleotides with the sequence NNBNNBNNBNNBNNB (where N=A/G/C/T, B=G/C/T) flanked at the 5′ and 3′ ends by EcoRI and HindIII sites, respectively, was synthesized. Equimolar amounts of the oligonucleotides were annealed by heating for 5 min at 90° C. with gradual cooling to 25° C. The double stranded DNA was ligated to T7Select 10-3 bacteriophage vector (Novagen) that had been previously digested with EcoRI and HindIII. The ligation reactions were packaged in vitro and titred using the host E. coli strain […] that was grown in M9TB (Novagen), generating 2.5×10^7 clones, representing about 75% coverage of the library. The recombinant phage were subjected to several rounds of amplification to generate a total library of 1.35×10^12 phage, ensuring representation in excess of 5×10^4 fold for each clone in the library.
(§2) Sequencing of phage inserts: Individual phage clones from the enriched pool are isolated via plaque formation in E. coli. The DNA inserts of individual phage are amplified in PCR using the commercially available primers T7SelectUP (5′-GGAGCTGTCGTATTCCAGTC-3′; SEQ ID NO: 37; Novagen, catalog #70005) and T7SelectDOWN (5′-AACCCCTCAAGACCCGTTTA-3′; SEQ ID NO: 38; Novagen, catalog #70006). The PCR product DNA is purified using the QIAquick 96 PCR Purification Kit (Qiagen) and subjected to DNA sequencing using T7SelectUP and T7SelectDOWN primers.
We constructed a pentameric random peptide phage display library in T7 phage. This phage library was then screened by biopanning as described in Example 3. For this screen, the TLR^lo cells were parental HEK293 (TLR2^−) cells, and the TLR^hi cells were HEK293 cells ectopically expressing human TLR2 (293.hTLR2, see Example 1, above). Phage bound to 293.hTLR2 cells were harvested, titred, and amplified prior to initiation of the each cycle of panning. In this way, it was possible to determine the % of input phage in each cycle that was ultimately harvested from the TLR2^hi cells.
After 4 rounds of biopanning, individual phage clones from the enriched pool were isolated via plaque formation in E. coli. […] phage clones were randomly picked for sequencing. Of the 109 individual clones examined the motif DPDSG was predominant (see Tables 6 and 7). […]

In order of falling “% Abundance” value:
1. IGRFR [peptide TLR2 ligand from phage display]  2.7%
2. MGTLP [peptide TLR2 ligand from phage display]  1.8%
3. ADTHQ [peptide TLR2 ligand from phage display]  0.9%
4. AWAGT [peptide TLR2 ligand from phage display]  0.9%
5. CVWLQ [peptide TLR2 ligand from phage display]  0.9%
6. GPLLH [peptide TLR2 ligand from phage display]  0.9%
7. HLLPG [peptide TLR2 ligand from phage display]  0.9%
8. IHVVP [peptide TLR2 ligand from phage display]  0.9%
9. IMWFP [peptide TLR2 ligand from phage display]  0.9%
10. IYKLA [peptide TLR2 ligand from phage display]  0.9%
11. KGWF [peptide TLR2 ligand from phage display]  0.9%
12. KYMPH [peptide TLR2 ligand from phage display]  0.9%
13. LRQGR [peptide TLR2 ligand from phage display]  0.9%
14. MFGVP [peptide TLR2 ligand from phage display]  0.9%
15. NYRRW [peptide TLR2 ligand from phage display]  0.9%
16. RVVAP [peptide TLR2 ligand from phage display]  0.9%
17. SHIAL [peptide TLR2 ligand from phage display]  0.9%
18. THKPK [peptide TLR2 ligand from phage display]  0.9%
19. VGKND [peptide TLR2 ligand from phage display]  0.9%

same assay, conditions: percentage of all clones sequenced (n = 109) having given peptide sequence; after 4 rounds of biopanning, TLRlo parental HEK293, TLRhi 293.hTLR2; peptides with no homology to known proteins

In order of falling “% Abundance” value:
1. RGGSK [peptide TLR2 ligand from phage display]  3.67%
2. VSEGV [peptide TLR2 ligand from phage display]  3.67%
3. ACGVY [peptide TLR2 ligand from phage display]  0.92%
4. AGCFS [peptide TLR2 ligand from phage display]  0.92%
5. AVRLS [peptide TLR2 ligand from phage display]  0.92%
6. CGPKL [peptide TLR2 ligand from phage display]  0.92%
7. EVCAP [peptide TLR2 ligand from phage display]  0.92%
8. FCGLG [peptide TLR2 ligand from phage display]  0.92%
9. GGKLS [peptide TLR2 ligand from phage display]  0.92%
10. IMRHP [peptide TLR2 ligand from phage display]  0.92%
11. KCQSF [peptide TLR2 ligand from phage display]  0.92%
12. MISS [peptide TLR2 ligand from phage display]  0.92%
13. MRRIL [peptide TLR2 ligand from phage display]  0.92%
14. NPPTT [peptide TLR2 ligand from phage display]  0.92%
15. NRFGL [peptide TLR2 ligand from phage display]  0.92%
16. NRTVF [peptide TLR2 ligand from phage display]  0.92%
17. PESGV [peptide TLR2 ligand from phage display]  0.92%
18. RGGF [peptide TLR2 ligand from phage display]  0.92%
19. SGGLF [peptide TLR2 ligand from phage display]  0.92%
20. SRHGR [peptide TLR2 ligand from phage display]  0.92%

target: human TLR2 and human CD14 (293.hTLR2.hCD14 cells) (Homo sapiens, UniProt O60603); test: Biopanning of pooled 10, 15 and 20 amino acid random peptide phage display libraries, sequencing of enriched clones; format: binding; conditions: percentage of all clones sequenced having given peptide sequence; 96 clones picked after 4 rounds of biopanning, TLRlo parental HEK293, TLRhi 293.hTLR2.hCD14
Sequence (O60603 21-784): as the sequence (O60603 21-784) above
Procedure: as §1
Libraries of phage displaying random peptides 10, 15 and 20 amino acids in length were constructed essentially as described for the pentameric random peptide library, except that the phosphorylated oligonucleotides used were 30, 45, and 60 nucleotides in length, respectively.
as §2
We also constructed 10, 15, and 20 amino acid random peptide phage display libraries in T7SELECT phage. These phage display libraries were pooled in equal proportion and then screened by biopanning as described in Example 3. […] Of the 96 clones analyzed three peptide sequences were particularly abundant (see Table 8). […]

In order of rising “% Abundance” value:
1. GRRGLCRGCRTRGRIKQLQSAHK [peptide TLR2 ligand from phage display]  16.1%
2. RWGYHLRDRKYKGVRSHKGVPR [peptide TLR2 ligand from phage display]  19.4%
3. KGGVGPVRRSSRLRRTTQPG [peptide TLR2 ligand from phage display]  33.3%

target: TLR2 (Homo sapiens, UniProt O60603); test: T7 phage biopanning, 4 rounds (negative on parental HEK293, positive on 293.hTLR2 cells); share of 109 sequenced clones; conditions: not given
Sequence (O60603 21-784 limits assumed): as the sequence (O60603 21-784) above

In order of falling % ABUNDANCE:
1. RGGSK (peptide)  3.67%
2. VSEGV (peptide)  3.67%
3. IGRFR (peptide)  2.7%
4. MGTLP (peptide)  1.8%
5. ACGVY (peptide)  0.92%
6. AGCFS (peptide)  0.92%
7. AVRLS (peptide)  0.92%
8. CGPKL (peptide)  0.92%
9. EVCAP (peptide)  0.92%
10. FCGLG (peptide)  0.92%
11. GGKLS (peptide)  0.92%
12. IMRHP (peptide)  0.92%
13. KCQSF (peptide)  0.92%
14. MISS (peptide)  0.92%
15. MRRIL (peptide)  0.92%
16. NPPTT (peptide)  0.92%
17. NRFGL (peptide)  0.92%
18. NRTVF (peptide)  0.92%
19. PESGV (peptide)  0.92%
20. RGGF (peptide)  0.92%
21. SGGLF (peptide)  0.92%
22. SRHGR (peptide)  0.92%
23. ADTHQ (peptide)  0.9%
24. AWAGT (peptide)  0.9%
25. CVWLQ (peptide)  0.9%
26. GPLLH (peptide)  0.9%
27. HLLPG (peptide)  0.9%
28. IHVVP (peptide)  0.9%
29. IMWFP (peptide)  0.9%
30. IYKLA (peptide)  0.9%
31. KGWF (peptide)  0.9%
32. KYMPH (peptide)  0.9%
33. LRQGR (peptide)  0.9%
34. MFGVP (peptide)  0.9%
35. NYRRW (peptide)  0.9%
36. RVVAP (peptide)  0.9%
37. SHIAL (peptide)  0.9%
38. THKPK (peptide)  0.9%
39. VGKND (peptide)  0.9%
